B1: ADI-19007 (antibody, V domains shown)
VH: QVQLVQSGGGLVQPGGSLRLSCAASGFTFSQSPMSWVRQAPGKGLEWVSGISTGGTNTYYADSVKGRFTISRDNSKNTLYLQMTSLRVGDTAVYYCAKESLDFGSGSYNWFDTWGQGTLVTVSS
VL: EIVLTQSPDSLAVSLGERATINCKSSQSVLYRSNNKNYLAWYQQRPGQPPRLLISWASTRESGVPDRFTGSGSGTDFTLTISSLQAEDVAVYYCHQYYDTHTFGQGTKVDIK
notes: full-length IgG
B2: ADI-18992 (antibody, V domains shown)
VH: QVQLVQSGAEVKKPGASVKVSCKASGYIFTGYFIHWVRQAPGQGLEWMGVINPRGGSTSYAQKFQGRVAVSRDTSTTTVYMELNSLRSEDTAVYYCARAPSHDEWVAISRNNDVVGFDAWGQGTLVTVSS
VL: QSVLTQPPSVSGAPGQRVTISCTGGSSNIGADYDVHWYQQPPGTAPKLLIFANNNRPSGVPGRFSGSKSGTSASLAITGLQAEDEADYYCQSYDSSLSAWVFGGGTKLTVL
notes: full-length IgG; also called Antibody Number 340
B3: ADI-18990 (antibody, V domains shown)
VH: QVQLQESGPGRVKPSQTLSLTCTVSGVSVTINDYYWTWLRQSPGKGLEWIGNIYNSGSTYQNPSLQSRVTMSVDTAKNHFSLKLTSVTAADTAVYYCARDLGTANNYYFGMDVWGLGTTVTVSS
VL: DIVLTQSPATLSLSPGERATLSCRASQSVSTYLAWYQQKPGQAPRLLIYNGSNRVTGTPARFSGSGSGTDFTLTISSVEPEDFAVYYCQQRSNWPPYTFGQGTKVEIK
notes: full-length IgG
B4: ADI-18999 (antibody, V domains shown)
VH: QVQLVQSGAEVKKPGSSVKVSCKASGGRFSSDAISWVRQAPGQGLEWMGGIIPIRGTPTYAQKFQGRVTIIADESTTTSYMEMSSLRSEDTAVYYCARPNYDILTGYNDAFDIWGQGTMVTVSS
VL: QSVLTQPRSVSGSPGQSVTISCTGTSSDVGGYNYVSWYQQHPGKVPRLMIYDVSKRPSGAPDRFSGSKSGNTASLTISGLQAEDEADYYCCSYAGGLYVFGTGTKLTVL
notes: full-length IgG
B5: ADI-19000 (antibody, V domains shown)
VH: EVQLVESGAEVKKPGASVKVSCKASGYTFTTYDINWVRQATGRGLEWMGWMTPDSGSTGYPQNFQGRVTMTRNTSISTAYMELSNLRSEDTAVYYCVQMDHCRSTSCSEGNWFDTWGQGTLVTVSS
VL: QPGLTQPPSVSAAPRQRVTISCSGSSSNIGTNAVNWYQQLPGKAPKLLIYSDNLMPSGVSARFSGSKSGTSASLAISGLQSEDEADYYCAAWDDSLNVWVFGGGTKLTVL
notes: full-length IgG; also called Antibody Number 348
B6: ADI-18982 (antibody, V domains shown)
VH: QVQLVQSGAEVKKPGASVKVSCKASGYIFTSYGVSWVRQAPGQGLKWMGWISGYNGNTNYDQKLQGRVTMTTDTSTSTAYMELRSLTSDDTAVYYCARDSFSETGTGFPDFWGQGTLVTVSS
VL: DIQMTQSPLSLPVTLGQPASISCRSSQSLEYSDGNTYLNWFQQRPGQSPRRLIYKVSNRDSGVPDRFSGSGSGTDFTLKISRVEAEDVGVYYCMQATHRPRTFGQGTKLEIK
notes: full-length IgG; also called Antibody Number 330

What was measured:
[1] = target: T1, RSV F ectodomain stabilized in the postfusion conformation (F ΔFP), subtype A (respiratory syncytial virus subtype A, UniProt P03420 26-109; P03420 147-524); assay: BLI (Octet), IgG on AHQ sensor, 100 nM antigen
T1 construct: extracellular domain; Trimer; also called Postfusion subtype A

[2] = target: T2, RSV F ectodomain stabilized in the postfusion conformation (F ΔFP), subtype B (respiratory syncytial virus subtype B, UniProt P13843 26-109; P13843 147-524); assay: BLI (Octet), IgG on AHQ sensor, 100 nM antigen
T2 construct: extracellular domain; Trimer; also called Postfusion subtype B

[3] = target: T3, RSV F protein of subtype A (strain A2) on recombinant mKate-RSV (respiratory syncytial virus subtype A …, UniProt P03420 26-574); assay: cell-based or functional assay
[4] = target: RSV F protein of subtype B (18537) on recombinant mKate-RSV (respiratory syncytial virus subtype B …, UniProt P13843 26-574); assay: cell-based or functional assay
[5] = target: T3, RSV F protein of subtype A (strain A2) …; assay: cell-based or functional assay; remark: listed apart in the source
[6] = target: human metapneumovirus (HMPV) F protein on GFP-expressing hMPV recombinant virus (NL/1/00, A1 sublineage) (human metapneumovirus); assay: cell-based or functional assay

Row | Binder | Kd [1] | Kd [2] | Neut IC50 subtype A [3] | Neut IC50 subtype B [4] | RSV-A2 IC50 [5] | HMPV-A1 IC50 [6]
1 | B1 | 0.969 nM | 0.457 nM | 0.208 µg/mL | 0.37 µg/mL | – | –
2 | B2 | – | 0.907 nM | 2.55 µg/mL | 5.69 µg/mL | 2.5 µg/mL | 6.1 µg/mL
3 | B3 | 0.294 nM | 0.252 nM | 0.58 µg/mL | 0.845 µg/mL | – | –
4 | B4 | 0.167 nM | 0.141 nM | 1.8 µg/mL | 6.46 µg/mL | – | –
5 | B5 | 0.175 nM | 0.128 nM | 0.037 µg/mL | 0.129 µg/mL | – | –
6 | B6 | 0.765 nM | 0.747 nM | 0.018 µg/mL | 0.053 µg/mL | – | –

— patent US20200223906A1 (Adimab, published 2020)
